The record followed here is patent US20020034767.

The target of data set [1] is T1, peptide RRRAAAEASAAA
T1 chain: RRRAAAEASAAA

In data set [2] the target is casein.
The target of data set [3] is T2, rhodopsin in urea treated rod outer segments, P02699.
T2 chain: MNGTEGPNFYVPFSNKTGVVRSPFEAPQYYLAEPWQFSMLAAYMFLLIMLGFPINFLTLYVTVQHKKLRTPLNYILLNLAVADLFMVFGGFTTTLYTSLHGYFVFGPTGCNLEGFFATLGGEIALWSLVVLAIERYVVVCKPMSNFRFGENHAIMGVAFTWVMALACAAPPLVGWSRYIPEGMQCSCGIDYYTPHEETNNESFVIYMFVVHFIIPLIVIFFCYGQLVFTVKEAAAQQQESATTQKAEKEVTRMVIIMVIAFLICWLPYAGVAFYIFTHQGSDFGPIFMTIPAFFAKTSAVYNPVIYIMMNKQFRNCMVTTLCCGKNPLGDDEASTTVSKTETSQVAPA

Data set [4] addresses β2-adrenergic receptor.
Data set [5] deals with m2 muscarinic cholinergic receptor.
Data set [6] concerns the target T3, peptide RRRAEASAA
T3 chain: RRRAEASAA

Data set [7] deals with G protein βγ subunits.
Data set [8] deals with T4, peptide RRREEESEEE
T4 chain: RRREEESEEE

The target in data set [9] is phosvitin.
Data set [10] addresses polylysine, a 14-16 amino acid peptide.
Data set [11] has as its target T5, peptide RRRASAAASAA containing a phosphoserine as the first serine.
T5 chain: RRRASAAASAA

Data set [12] deals with T6, peptide RRREEESGGG
T6 chain: RRREEESGGG

Data set [13] addresses histones.

B1: G protein-coupled receptor kinase GRK6 (human) (protein)
chain: MELENIVANTVLLKAREGGGGNRKGKSKKWRQMLQFPHISQCEELRLSLERDYHSLCERHAIGRLLFREFCATRPELSRCVAFLDGVAEYEVTPDDKRKACGRHVTQNFLSHTGPDLIPEVPRQLVTNCTQRLEQGPCKDLFQELTRLTHEYLSVAPFADYLDSIYFNRFLQWKWLERQPVTKNTFRQYRVLGKGGFGEVCACQVRATGKMYACKKLEKKRIKKRKGEAMALNEKQILEKVNSRFVVSLAYAYETKDALCLVLTLMNGGDLKFHIYHMGQAGFPEARAVFYAAEICCGLEDLHRERIVYRDLKPENILLDDHGHIRISDLGLAVHVPEGQTIKGRVGTVGYMAPEVVKNERYTFSPDWWALGCLLYEMIAGQSPFQQRKKKIKREEVERLVKEVPEEYSERFSPQARSLCSQLLCKDPAERLGCRGGSAREVKEHPLFKKLNFKRLGAGMLEPPFKPDPQAIYCKDVLDIEQFSYVKGVELEPTDQDFYQKFATGSVPIPWQNEMVETECFQELNVFGLDGSVPPDLDWKGQPPAPPKKGLLQRLFSRQDCCGNCSDSEEELPTRL
As to B1, the peptide phosphorylation result in [1] is “but not with the RRRAAAEASAAA (SEQ ID NO: 11) peptide”; in data set [6] it was “GRK6 activity was also apparent with the RRRAEASAA (SEQ ID NO: 10) peptide”; in data set [8], “poorly phosphorylated by GRK6”; in data set [11], “the same peptide containing a phosphoserine as the first serine is not phosphorylated by GRK6”; in data set [12] it was “poorly phosphorylated by GRK6”. In addition, the protein substrate phosphorylation result in [2] is “GRK6 was able to phosphorylate the acidic proteins casein and phosvitin”; in [9], “GRK6 was able to phosphorylate the acidic proteins casein and phosvitin”; in data set [13], “it was only weakly reactive toward the basic protein substrate histones”. Further, the “rhodopsin phosphorylation activity relative to βARK virus infected supernatant” value in data set [3] is 4.7% +/-0.4% that of the βARK virus infected supernatant. Besides, the “stimulus dependent receptor phosphorylation” value is “GRK6 is also able to phosphorylate rhodopsin, β2-adrenergic and m2 muscarinic cholinergic receptors in a stimulus dependent manner, albeit to a significantly lower extent than βARK and GRK5” in data set [4]; “GRK6 is also able to phosphorylate rhodopsin, β2-adrenergic and m2 muscarinic cholinergic receptors in a stimulus dependent manner, albeit to a significantly lower extent than βARK and GRK5” in data set [5]. The “kinase activation by G protein βγ subunits” value in data set [7] is listed as “it is not activated by G protein βγ subunits”. Moreover, the “fold increase in phosphorylation of rhodopsin” value in [10] is “an ˜2.7-fold increase in phosphorylation (optimal range 1 to 10 µM)”.
